Reference: patent US20220025056A1

How the values were obtained:
[1] = target: human ILT2 (LILRB1) expressed at the surface of transfected cells (human) (UniProt Q8NHL6); assay: flow cytometry, CHO-ILT2 cells
[2] = target: ILT-2_6xHis recombinant protein (human) (UniProt Q8NHL6); assay: Octet BLI, antibody on anti-mouse Fc sensor, soluble ILT2 analyte
ILT-2_6xHis recombinant protein (human), sequence (Q8NHL6 other isoform, or with tags, fused parts or gaps limits assumed): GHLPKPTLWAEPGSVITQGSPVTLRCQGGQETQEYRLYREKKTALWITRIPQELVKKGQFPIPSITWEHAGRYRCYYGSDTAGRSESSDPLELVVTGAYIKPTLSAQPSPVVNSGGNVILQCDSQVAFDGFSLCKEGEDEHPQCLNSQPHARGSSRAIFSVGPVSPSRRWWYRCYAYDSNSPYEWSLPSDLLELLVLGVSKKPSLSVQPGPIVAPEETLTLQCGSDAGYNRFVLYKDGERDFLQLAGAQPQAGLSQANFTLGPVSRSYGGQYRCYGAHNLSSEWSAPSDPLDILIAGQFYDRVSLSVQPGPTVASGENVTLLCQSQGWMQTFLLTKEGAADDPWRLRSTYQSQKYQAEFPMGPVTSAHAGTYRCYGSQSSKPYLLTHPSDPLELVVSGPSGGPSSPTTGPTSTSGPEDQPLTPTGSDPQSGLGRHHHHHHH

human ILT2 (LILRB1) expressed at the surface of transfected cells (human), sequence (Q8NHL6 24-650): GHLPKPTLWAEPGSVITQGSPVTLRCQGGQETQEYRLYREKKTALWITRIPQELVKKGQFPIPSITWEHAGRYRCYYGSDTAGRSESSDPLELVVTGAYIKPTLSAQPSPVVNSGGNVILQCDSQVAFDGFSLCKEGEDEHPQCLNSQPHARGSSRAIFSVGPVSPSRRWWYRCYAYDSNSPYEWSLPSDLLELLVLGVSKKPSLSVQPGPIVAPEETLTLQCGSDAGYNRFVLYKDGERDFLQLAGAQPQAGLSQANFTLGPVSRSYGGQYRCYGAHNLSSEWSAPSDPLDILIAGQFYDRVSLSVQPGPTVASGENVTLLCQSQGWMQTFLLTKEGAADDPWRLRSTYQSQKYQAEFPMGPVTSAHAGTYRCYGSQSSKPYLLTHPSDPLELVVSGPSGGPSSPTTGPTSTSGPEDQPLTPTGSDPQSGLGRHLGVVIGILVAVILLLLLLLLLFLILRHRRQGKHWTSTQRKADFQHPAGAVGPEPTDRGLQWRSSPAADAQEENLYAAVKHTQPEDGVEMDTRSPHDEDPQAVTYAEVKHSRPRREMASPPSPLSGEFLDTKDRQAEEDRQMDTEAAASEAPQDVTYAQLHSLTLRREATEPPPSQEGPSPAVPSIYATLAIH

GHI/75 (antibody)
EC50 [1]: 5.39 µg/mL
Kd [2]: 28.1 nM
koff [2]: 0.00038 s⁻¹
kon [2]: 13000 M⁻¹ s⁻¹
